Reference: publication PMC9765476, “Malic Enzyme, not Malate Dehydrogenase, Mainly Oxidizes Malate That Originates from the Tricarboxylic Acid Cycle in Cyanobacteria” (mBio, 2022)

Key:
Experiment in all cases: purified protein
purified protein [1] = substrate: O=C(O)C[C@H](O)C(=O)O; conditions: malate oxidation
purified protein [2] = substrate: CC(=O)C(=O)O; format: biochemical, Nostoc sp. PCC 7120 = FACHB-418; conditions: 0.1 mM NADPH, 100 mM NH4Cl, 0.1 mM MnCl2, 50 mM KHCO3, pH 8.8, 52°C, reductive reaction
purified protein [3] = substrate: NC(=O)C1=CN([C@@H]2O[C@H](COP(=O)(O)OP(=O)(O)OC[C@H]3O[C@@H](n4cnc5c(N)ncnc54)[C@H](OP(=O)(O)O)[C@@H]3O)[C@@H](O)[C@H]2O)C=CC1; format: biochemical, Nostoc sp. PCC 7120 = FACHB-418; conditions: 30 mM pyruvate, 100 mM NH4Cl, 0.1 mM MnCl2, 50 mM KHCO3, pH 8.8, 52°C, reductive reaction, varied: cofactor
purified protein [4] = substrate: NC(=O)c1ccc[n+]([C@@H]2O[C@H](COP(=O)(O)OP(=O)(O)OC[C@H]3O[C@@H](n4cnc5c(N)ncnc54)[C@H](OP(=O)(O)O)[C@@H]3O)[C@@H](O)[C@H]2O)c1; format: biochemical, Nostoc sp. PCC 7120 = FACHB-418; conditions: 3 mM malate, 100 mM NH4Cl, 0.1 mM MnCl2, pH 8.8, 52°C, malate oxidation, varied: cofactor
purified protein [5] = substrate: NC(=O)C1=CN([C@@H]2O[C@H](COP(=O)(O)OP(=O)(O)OC[C@H]3O[C@@H](n4cnc5c(N)ncnc54)[C@H](O)[C@@H]3O)[C@@H](O)[C@H]2O)C=CC1; format: biochemical, Limnospira platensis; conditions: 0.5 mM oxaloacetate, pH 8.5, 50°C, reductive reaction, varied: cofactor
purified protein [6] = substrate: NC(=O)c1ccc[n+]([C@@H]2O[C@H](COP(=O)(O)OP(=O)(O)OC[C@H]3O[C@@H](n4cnc5c(N)ncnc54)[C@H](O)[C@@H]3O)[C@@H](O)[C@H]2O)c1; format: biochemical, Limnospira platensis; conditions: 1 mM malate, pH 8.5, 50°C, malate oxidation, varied: cofactor
purified protein [7] = substrate: O=C(O)CC(=O)C(=O)O; format: biochemical, Limnospira platensis; conditions: 0.1 mM NADH, pH 8.5, 50°C, reductive reaction
purified protein [8] = substrate: NC(=O)c1ccc[n+]([C@@H]2O[C@H](COP(=O)(O)OP(=O)(O)OC[C@H]3O[C@@H](n4cnc5c(N)ncnc54)[C@H](OP(=O)(O)O)[C@@H]3O)[C@@H](O)[C@H]2O)c1; format: biochemical, Synechocystis sp. PCC 6803; conditions: 3 mM malate, 100 mM NH4Cl, 0.5 mM MnCl2, pH 8.3, 50°C, malate oxidation, varied: cofactor
purified protein [9] = substrate: NC(=O)C1=CN([C@@H]2O[C@H](COP(=O)(O)OP(=O)(O)OC[C@H]3O[C@@H](n4cnc5c(N)ncnc54)[C@H](O)[C@@H]3O)[C@@H](O)[C@H]2O)C=CC1; format: biochemical, Nostoc sp. PCC 7120 = FACHB-418; conditions: 0.1 mM oxaloacetate, pH 9.0, 50°C, reductive reaction, varied: cofactor
purified protein [10] = substrate: NC(=O)c1ccc[n+]([C@@H]2O[C@H](COP(=O)(O)OP(=O)(O)OC[C@H]3O[C@@H](n4cnc5c(N)ncnc54)[C@H](O)[C@@H]3O)[C@@H](O)[C@H]2O)c1; format: biochemical, Nostoc sp. PCC 7120 = FACHB-418; conditions: 5 mM malate, pH 9.0, 50°C, malate oxidation, varied: cofactor
purified protein [11] = substrate: O=C(O)CC(=O)C(=O)O; format: biochemical, Nostoc sp. PCC 7120 = FACHB-418; conditions: 0.1 mM NADH, pH 9.0, 50°C, reductive reaction
purified protein [12] = substrate: NC(=O)C1=CN([C@@H]2O[C@H](COP(=O)(O)OP(=O)(O)OC[C@H]3O[C@@H](n4cnc5c(N)ncnc54)[C@H](O)[C@@H]3O)[C@@H](O)[C@H]2O)C=CC1; format: biochemical, Synechocystis sp. PCC 6803; conditions: 0.5 mM oxaloacetate, pH 8.0, 50°C, reductive reaction, varied: cofactor
purified protein [13] = substrate: NC(=O)c1ccc[n+]([C@@H]2O[C@H](COP(=O)(O)OP(=O)(O)OC[C@H]3O[C@@H](n4cnc5c(N)ncnc54)[C@H](O)[C@@H]3O)[C@@H](O)[C@H]2O)c1; format: biochemical, Synechocystis sp. PCC 6803; conditions: 4 mM malate, pH 8.0, 50°C, malate oxidation, varied: cofactor
purified protein [14] = substrate: O=C(O)CC(=O)C(=O)O; format: biochemical, Synechocystis sp. PCC 6803; conditions: 0.1 mM NADH, pH 8.0, 50°C, reductive reaction
[15] = 0.5 mM NADP+, 100 mM NH4Cl, 0.1 mM MnCl2, pH 8.8, 52°C, pH 8.8, 52.0 °C
[16] = 8 mM NAD+, pH 8.5, 50°C, pH 8.5, 50.0 °C
[17] = 0.5 mM NADP+, 100 mM NH4Cl, 0.5 mM MnCl2, pH 8.3, 50°C, pH 8.3, 50.0 °C
[18] = 8 mM NAD+, pH 9.0, 50°C, pH 9.0, 50.0 °C
[19] = 8 mM NAD+, pH 8.0, 50°C, pH 8.0, 50.0 °C

B1: NoME (Nostoc sp. PCC 7120 = FACHB-418) (protein)
chain: MADLTPNSSFSVTLRLQIPNRVGMLASITQAIASSGGNLGQIDLIEQTRQVSLRDLTVDAASTEHAETIVQAVKAIPDIKLVSVYDRTFNLHRGGKISITSRIPLKSVSDLAMAYTPGVGRVCTAIAQDPSQVYNLTIKQNTVAIVTDGSAVLGLGNLGPHAALPVMEGKAMLFKEFAGLDAFPICLATQDTEEIIQAVKNIAPVFGGVNLEDIAAPRCFEIEKRLRDELDIPVFHDDQHGTAIVTLAALFNSLKLVQKSLADIRIVINGAGAAGVAIARLLRKAGAEKIWMCDSKGIISTTRTDLNEEKQEFAVKAQGTLAGAVQGADVFIGVSAPGVLTPEMVKSMAKDAIVFAMANPIPEIQPELISKDVAVIATGRSDYPNQINNVLAFPGVFRGALDCRAQTITTTMYLEAASAIASLVNPSDLSREHIIPSVFDERVVTAVAAAVQRAAREEGIARG
notes: full length, GST-tagged (pGEX6P-1), tag kept, E. coli BL21(DE3)
K0.5 (purified protein [1]; [15]): 0.41 ± 0.02 mM
kcat (purified protein [1]; [15]): 30.3 s⁻¹
kcat/Km (purified protein [1]; [15]): 75000 M⁻¹ s⁻¹
K0.5 (purified protein [2]): 6.55 ± 0.38 mM
kcat (purified protein [2]): 0.79 ± 0.03 s⁻¹
kcat/Km (purified protein [2]): 120 ± 3 M⁻¹ s⁻¹
K0.5 (purified protein [3]): 0.0074 ± 0.001 mM
kcat (purified protein [3]): 0.85 ± 0.03 s⁻¹
kcat/Km (purified protein [3]): 116000 ± 10000 M⁻¹ s⁻¹
K0.5 (purified protein [4]): 0.014 ± 0.004 mM
kcat (purified protein [4]): 33.4 ± 3.2 s⁻¹
kcat/Km (purified protein [4]): 2.53e+06 ± 436000 M⁻¹ s⁻¹

B2: ArMDH (Limnospira platensis NIES-46) (protein)
chain: MQMASSMFFPPSCHPTQVSIIGAGKVGGTLAQRIAESNVAHVVLLDVVEGLPQGVALDLMQAGSVEGHDRKILGTNDYADTAGSDVVVITAGRPRTPGMNRNDLIETNAPIVARAVTNAIASSPNAVIIIVTNPLDVMTYIAWQVSQIEPFRIMGMAGVLDSARFQAFIATELNVSVADVNATVMGSHGDLMVPLPRYSTVNGIPITELMDTETINRLIARTRNGGAEIVGLLKTGGAYYAPASSVRTMVESILLNRRRLLPTSAYLKGEYGMKDIFLGVPCWLGCRGVEAVLELNLTDNEREALNSCAQSVREGIEKADAVLAATAAV
notes: as for B1
K0.5 (purified protein [1]; [16]): 0.034 ± 0.002 mM
kcat (purified protein [1]; [16]): 0.25 s⁻¹
kcat/Km (purified protein [1]; [16]): 7300 M⁻¹ s⁻¹
K0.5 (purified protein [5]): 0.0085 ± 0.0025 mM
kcat (purified protein [5]): 1.7 ± 0.1 s⁻¹
kcat/Km (purified protein [5]): 214000 ± 50000 M⁻¹ s⁻¹
K0.5 (purified protein [6]): 0.30 ± 0.02 mM
kcat (purified protein [6]): 0.5 ± 0.01 s⁻¹
kcat/Km (purified protein [6]): 1700 ± 100 M⁻¹ s⁻¹
K0.5 (purified protein [7]): 0.041 ± 0.001 mM
kcat (purified protein [7]): 1.4 ± 0.03 s⁻¹
kcat/Km (purified protein [7]): 34000 ± 400 M⁻¹ s⁻¹

B3: SyME (Synechocystis sp. PCC 6803 substr. Kazusa) (protein)
chain: MVSLTPNPSYSVSLLLELPNHAGTLASVTQAIADAGGSFGQISLIESNLKLTRREIAVDASSSEHAEKIIGAVKALDNVKLLKVSDRTFDLHRQGKISVVSRIPLTSQSDLAMAYTPGVGRICRAIAEDPEKVYSLTIKSNTVAVVTDGSAVLGLGNLGPEAALPVMEGKAMLFKEFAQLDAFPICLDTQDTEEIIRTVKAIAPVFGGVNLEDIAAPRCFEIEARLKKELNIPVFHDDQHGTAIVTLAALLNALKFVGKAMAAVRIVINGAGAAGLAIAELLKESGATDIWICDSKGIVGKHRTDLNSKKQSFAVDAEGTLADAMAGADVFLGVSAPGVVTKEMVQSMAKDPIVFAMANPIPEIQPELIQEDAAVIATGRSDYPNQINNVLAFPGVFRGAIDCRASIITTTMCIEAAKAIASLVHSNTLDSEHIIPSVFDNRVATTVASAVQLAARNEGVAGQ
notes: full length, His-tagged (pQE80L), E. coli BL21(DE3), synthesized gene
K0.5 (purified protein [1]; [17]): 0.46 ± 0.06 mM
kcat (purified protein [1]; [17]): 77.2 s⁻¹
kcat/Km (purified protein [1]; [17]): 169000 M⁻¹ s⁻¹
K0.5 (purified protein [8]): 0.015 ± 0.001 mM
kcat (purified protein [8]): 55.7 ± 3.3 s⁻¹
kcat/Km (purified protein [8]): 3.689e+06 ± 23000 M⁻¹ s⁻¹

B4: NoMDH (Nostoc sp. PCC 7120 = FACHB-418) (protein)
chain: MFSSPDSPILHCLPRVAIIGAGRVGSTLAQRIAEKNLADVVLLDIVEGIPQGLALDLLEARGIELHNRQIIGTNNYADTSGSQIVVITAGFPRKPGMSRDDLLRTNAKIVIEAAKQAIAYSPYAIFIVVTNPLDVMTYLAWEATGLPRNRIMGMAGVLDSARFETFIALELGVLPADVKAMVLGSHGDLMVPLSRYATVNGIPITQLLDAVTIERLVERTRNGGAEIVELMQTGGAFFAPASATSLMVESILLNQSRLLPVSIYLQGEYDLKDVVIGVPCRLGLNGIESVIELNLSDSEREALHISAKSVQKNIERWRSLQNS
notes: full length, GST-tagged (pGEX6P-1), tag kept, E. coli BL21(DE3), 10°C expression
K0.5 (purified protein [1]; [18]): 1.88 ± 0.56 mM
kcat (purified protein [1]; [18]): 3.5 s⁻¹
kcat/Km (purified protein [1]; [18]): 2000 M⁻¹ s⁻¹
K0.5 (purified protein [9]): 0.0093 ± 0.0001 mM
kcat (purified protein [9]): 1.3 ± 0.1 s⁻¹
kcat/Km (purified protein [9]): 142000 ± 8000 M⁻¹ s⁻¹
K0.5 (purified protein [10]): 8.45 ± 1.95 mM
kcat (purified protein [10]): 6.3 ± 0.5 s⁻¹
kcat/Km (purified protein [10]): 770 ± 100 M⁻¹ s⁻¹
K0.5 (purified protein [11]): 0.026 ± 0.002 mM
kcat (purified protein [11]): 1.1 ± 0.03 s⁻¹
kcat/Km (purified protein [11]): 42000 ± 2000 M⁻¹ s⁻¹

B5: SyMDH (Synechocystis sp. PCC 6803 substr. Kazusa) (protein)
chain: MNILEYAPIACQSWQVTVVGAGNVGRTLAQRLVQQNVANVVLLDIVPGLPQGIALDLMAAQSVEEYDSKIIGTNEYEATAGSDVVVITAGLPRRPGMSRDDLLGKNANIVAQGAREALRYSPNAILIVVTNPLDVMTYLAWKVTGLPSQRVMGMAGVLDSARLKAFIAMKLGACPSDINTLVLGGHGDLMLPLPRYCTVSGVPITELIPPQTIEELVERTRNGGAEIAALLQTGTAYYAPASSAAVMVESILRNQSRILPAATYLDGAYGLKDIFLGVPCRLGCRGVEDILEVQLTPEEKAALHLSAEAVRLNIDVALAMVSDG
notes: as for B3
K0.5 (purified protein [1]; [19]): 1.61 ± 0.37 mM
kcat (purified protein [1]; [19]): 1 s⁻¹
kcat/Km (purified protein [1]; [19]): 640 M⁻¹ s⁻¹
K0.5 (purified protein [12]): 0.018 ± 0.002 mM
kcat (purified protein [12]): 6.6 ± 0.5 s⁻¹
kcat/Km (purified protein [12]): 364000 ± 19000 M⁻¹ s⁻¹
K0.5 (purified protein [13]): 1.34 ± 0.30 mM
kcat (purified protein [13]): 1.8 ± 0.1 s⁻¹
kcat/Km (purified protein [13]): 1400 ± 200 M⁻¹ s⁻¹
K0.5 (purified protein [14]): 0.11 ± 0.002 mM
kcat (purified protein [14]): 4 ± 0.04 s⁻¹
kcat/Km (purified protein [14]): 36000 ± 1000 M⁻¹ s⁻¹
